± gives the uncertainty stated by the source.
Experiment: self-splicing fitness, log relative to wild type (ln ratio); higher = more splicing; Tetrahymena group I intron in knt gene, E. coli kanamycin selection, DiMSum; sequences stand for … in CUCUCU…GGAGGGAAAAGUUAUCAGGCAUGCACCUGGUAGCUAGUCUUUAAACCAAUAGAUUGCAUCGGUUUAAAAGGCAAGACCGUCAAAUUGCGGGAAAGGGGUCAACAGCCGUUCAGUACCAAGUCUCAGGGGAAACUUUGAGAUGGCCUUGCAAAGGGUAUGGUAAUAAGCUGACGGACAUGGUCCUAACCACGCAGCCAAGUCCUAAGUCAACAGAUCUUCUGUUGAUAUGGAUGCAGUUCACAGACUAAAUGUCGGUCGGGGAAGAUGUAUUCUUCUCAUAAGAUAUAGUCGGACCUCUCCUUAAUGGGAGCUAGCGGAUGAAGUGAUGCAACACUGGAGCCGCUGGGAACUAAUUUGUAUGCGAAAGUAUAUUGAUUAGUUUUGGAGUACUCGUGGUCG
Method in brief: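 Library with all eight P1ex-region intron nucleotides randomised, intron inside the knt kanamycin-resistance gene on pET-22b(+), in E. coli BL21(DE3). Cells grew overnight at 37°C or 30°C on LB agar with or without 25 μg/mL kanamycin (plus 100 μg/mL carbenicillin, 50 μM IPTG, 0.2% rhamnose), in six replicate transformations. Pooled colonies were amplicon-sequenced on Illumina HiSeq 2500. DiMSum fitness is the error-weighted combination of wild-type-normalised replicate fold changes, kanamycin versus none.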

Sequence	self-splicing fitness (ln) (30 °C)	self-splicing fitness (ln) (37 °C)
UUACAGCAAUAUUACGAAGA	-1.25 ± 0.15	-0.992 ± 0.15
UUACAGCAAUAUUACGAAUU	-3.13 ± 0.22	-3.1 ± 0.24
UUACAGCAAUAUUACGACAC	-3.53 ± 0.43	–
UUACAGCAAUAUUACGACCU	-1.38 ± 0.18	-1.25 ± 0.18
UUACAGCAAUAUUACGACGG	-0.531 ± 0.097	0.113 ± 0.13
UUACAGCAAUAUUACGAGAU	-2.96 ± 0.25	-1.69 ± 0.24
UUACAGCAAUAUUACGAGCG	-0.688 ± 0.088	-0.631 ± 0.096
UUACAGCAAUAUUACGAGGC	–	-1.85 ± 0.3
UUACAGCAAUAUUACGAUAA	-0.0512 ± 0.1	-0.232 ± 0.11
UUACAGCAAUAUUACGAUAU	-1.83 ± 0.11	-0.951 ± 0.14
UUACAGCAAUAUUACGCAAC	-3.55 ± 0.33	-2.32 ± 0.27
UUACAGCAAUAUUACGCCAA	-1.35 ± 0.17	-1.01 ± 0.17
UUACAGCAAUAUUACGCUCA	-0.512 ± 0.12	-0.224 ± 0.13
UUACAGCAAUAUUACGGAAG	-3 ± 0.13	-2.05 ± 0.14
UUACAGCAAUAUUACGGACG	-0.683 ± 0.079	-0.00562 ± 0.096
UUACAGCAAUAUUACGGAGC	-3.42 ± 0.38	-1.79 ± 0.35
UUACAGCAAUAUUACGGAUU	-3.81 ± 0.24	-2.08 ± 0.16
UUACAGCAAUAUUACGGCAA	-0.112 ± 0.11	-0.272 ± 0.12
UUACAGCAAUAUUACGGCGU	-2.6 ± 0.14	-2.57 ± 0.21
UUACAGCAAUAUUACGGUCU	-0.96 ± 0.075	-0.357 ± 0.088
UUACAGCAAUAUUACGUAUG	-0.997 ± 0.054	-0.53 ± 0.068
UUACAGCAAUAUUACGUGGC	-2.87 ± 0.26	-2.92 ± 0.34
UUACAGCAAUAUUACGUGUA	-2.48 ± 0.084	-1.48 ± 0.081
UUACAGCAAUAUUACGUUCA	-0.535 ± 0.11	0.086 ± 0.12

Sequence	self-splicing fitness (ln) (30 °C)	self-splicing fitness (ln) (37 °C)
UUACAGCAAUAUUACGUUCU	-1.6 ± 0.13	-1.01 ± 0.11
UUAGAGCAAUAUUACGAACG	-0.913 ± 0.22	-0.303 ± 0.19
UUAGAGCAAUAUUACGAAGU	-3.03 ± 0.21	-1.98 ± 0.28
UUAGAGCAAUAUUACGACGU	-2.39 ± 0.17	-0.776 ± 0.21
UUAGAGCAAUAUUACGAGAG	-0.212 ± 0.24	-1.7 ± 0.24
UUAGAGCAAUAUUACGAUCG	-1.29 ± 0.15	-1.67 ± 0.16
UUAGAGCAAUAUUACGCACC	-3.79 ± 0.33	-2.04 ± 0.4
UUAGAGCAAUAUUACGCAUU	-3.24 ± 0.38	–
UUAGAGCAAUAUUACGCGAC	-3.78 ± 0.37	–
UUAGAGCAAUAUUACGCGCU	-1.84 ± 0.41	-1.11 ± 0.47
UUAGAGCAAUAUUACGCGGA	-1.29 ± 0.1	-0.00507 ± 0.11
UUAGAGCAAUAUUACGCGGU	-2.71 ± 0.25	-2.81 ± 0.48
UUAGAGCAAUAUUACGCUGA	-2.6 ± 0.21	-0.656 ± 0.28
UUAGAGCAAUAUUACGCUUG	-0.891 ± 0.11	0.00726 ± 0.16
UUAGAGCAAUAUUACGGAGC	-3.62 ± 0.29	-2.31 ± 0.22
UUAGAGCAAUAUUACGGCAA	-0.627 ± 0.12	-0.584 ± 0.18
UUAGAGCAAUAUUACGGCUC	-3.52 ± 0.35	-1.68 ± 0.28
UUAGAGCAAUAUUACGGGCA	-2.25 ± 0.12	-1.54 ± 0.18
UUAGAGCAAUAUUACGGGUC	-3.07 ± 0.18	-1.69 ± 0.22
UUAGAGCAAUAUUACGGUCU	-3.05 ± 0.41	-2.66 ± 0.48
UUAGAGCAAUAUUACGUAAU	-2.77 ± 0.31	-1.69 ± 0.36
UUAGAGCAAUAUUACGUGCA	-2.16 ± 0.15	-0.652 ± 0.16
UUAGAGCAAUAUUACGUGCG	-1.28 ± 0.1	-0.87 ± 0.14
UUAGAGCAAUAUUACGUGGG	-3.41 ± 0.22	-1.92 ± 0.17

From the supplement of paper PMC7877785
